Literature values, collected in PMC3727077.
Like-named read-outs stand apart in the source and are kept apart here.

Key:
VEGFR2 (Homo sapiens) = VEGFR2 (Homo sapiens) (UniProt P35968)
NRP1 (Homo sapiens) [1] = biological target: NRP1 (Homo sapiens) (UniProt O14786)
α2MFAST (Homo sapiens) = α2MFAST (Homo sapiens) (UniProt P01023)
VEGFR1 (Homo sapiens) = VEGFR1 (Homo sapiens) (UniProt P17948)
α2M (Homo sapiens) = α2M (Homo sapiens) (UniProt P01023)
NRP1 (Homo sapiens) [2] = biological target: NRP1 (Homo sapiens) (UniProt O14786); remark: listed apart in the source

UniProt P35968, sequence (P35968 20-1356): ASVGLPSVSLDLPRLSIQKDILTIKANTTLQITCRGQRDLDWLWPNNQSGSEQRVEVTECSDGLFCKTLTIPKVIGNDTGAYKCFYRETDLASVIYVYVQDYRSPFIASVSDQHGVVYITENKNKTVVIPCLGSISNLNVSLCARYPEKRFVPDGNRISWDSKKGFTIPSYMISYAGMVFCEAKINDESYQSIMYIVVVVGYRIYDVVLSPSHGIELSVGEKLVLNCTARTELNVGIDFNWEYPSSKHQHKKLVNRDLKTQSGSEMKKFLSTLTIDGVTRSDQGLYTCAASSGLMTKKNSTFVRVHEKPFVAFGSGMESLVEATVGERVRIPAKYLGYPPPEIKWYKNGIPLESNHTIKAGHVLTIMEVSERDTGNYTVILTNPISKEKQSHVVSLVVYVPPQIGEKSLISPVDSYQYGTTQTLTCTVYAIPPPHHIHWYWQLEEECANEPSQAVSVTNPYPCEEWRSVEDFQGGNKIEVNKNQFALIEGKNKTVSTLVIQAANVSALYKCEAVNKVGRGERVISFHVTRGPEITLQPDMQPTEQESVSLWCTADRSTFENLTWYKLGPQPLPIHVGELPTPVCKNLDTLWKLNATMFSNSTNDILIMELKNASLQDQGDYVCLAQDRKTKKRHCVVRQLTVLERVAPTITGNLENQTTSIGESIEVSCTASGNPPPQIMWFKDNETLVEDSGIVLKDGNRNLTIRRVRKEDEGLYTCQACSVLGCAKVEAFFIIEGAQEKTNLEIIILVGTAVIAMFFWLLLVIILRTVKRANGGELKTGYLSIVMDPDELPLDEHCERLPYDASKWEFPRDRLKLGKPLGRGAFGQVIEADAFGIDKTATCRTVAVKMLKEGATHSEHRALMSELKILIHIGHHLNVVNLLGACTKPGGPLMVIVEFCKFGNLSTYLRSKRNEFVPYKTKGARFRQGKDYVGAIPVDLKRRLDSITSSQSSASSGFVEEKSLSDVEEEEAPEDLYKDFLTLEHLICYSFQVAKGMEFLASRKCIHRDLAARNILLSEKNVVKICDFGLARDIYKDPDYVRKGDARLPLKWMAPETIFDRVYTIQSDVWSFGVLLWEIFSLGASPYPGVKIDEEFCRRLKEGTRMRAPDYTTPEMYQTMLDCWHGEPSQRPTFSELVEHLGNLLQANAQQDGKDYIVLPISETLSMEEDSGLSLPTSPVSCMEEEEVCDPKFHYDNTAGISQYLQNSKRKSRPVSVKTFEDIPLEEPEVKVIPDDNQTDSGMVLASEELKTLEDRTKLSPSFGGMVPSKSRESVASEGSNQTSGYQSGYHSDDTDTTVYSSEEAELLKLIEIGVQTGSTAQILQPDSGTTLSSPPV

Row | Kd (VEGFR2 (Homo sapiens)) [nM] | Kd (NRP1 (Homo sapiens) [1]) [nM] | Kd (α2MFAST (Homo sapiens)) [nM] | Kd (VEGFR1 (Homo sapiens)) [nM] | Kd (α2M (Homo sapiens)) [µM] | Kd (NRP1 (Homo sapiens) [2]) [nM] | Substance
1 | 0.1 | 0.312 | 420 | 0.033 | 4 |  | VEGF (from UniProt P15692)
2 |  |  |  |  |  | 1.8 | sVEGFR1 soluble (from UniProt P17948)
